Experiments:
B16/Db-hmgp100 melanoma = assay: Syngeneic B16/Db-hmgp100 mouse tumor model; format: in vivo; conditions: anti-PVRIG combination study, vs isotype control mAbs
Procedure: B16/Db-hmgp100 cells were kindly provided by Dr. Hanada et al. (HHS agency) and were licensed from NIH. B16/Db-hmgp100 cells were generated by double transduction of B16F10 with H-2 Db and a retrovirus that encodes chimeric mouse gp100 that is comprised of the human gp10025-33 and the rest of mouse gp100. Cells were cultured in RPMI 1640 (Biological Industries, 01-100-1A) with 10% FBS (Biological Industries, 04-127-1A), and 100 μg/mL penicillin/streptomycin (Biological Industries, 03-031-1B), 1% Glutamax (Life technologies, 35050-038, 1% Sodium pyruvate (Biological Industries, 03-042-1B), 0.01% 2-mercaptoethanol (Life technologies, 31350-010, 10 μg/ml Blasticidin (InvivoGen, ant-bl-05). 1×10^5 B16/Db-hmgp100 cells subcutaneously into the back right flank of mice. […]
At day 4 post tumor inoculation mice were treated with mAbs (as detailed below) injected on day 4, 7, 11, 14, 18 and 21 post inoculation. Tumor growth was measured with caliper every 2-3 days. […]
Two-way ANOVA with repeated measures, followed by two-way ANOVA with repeated measures for selected pairs of groups using JMP (Statistical Discoveries™) software. Analyses of tumor growth measurements were performed by comparing tumor volumes measured on the last day on which all study animals were alive. Statistical differences in percentage of mice tumor free were determined by a Log Rank Mantel-Cox test. […]

[1] = MC38ova tumor-bearing mice treated with anti-mIL18BP or engineered mIL-18: weight, serum cytokines, spleen; format: in vivo, mouse
Procedure: Experiments were performed in C57Bl/6 (female, 6-8 wk, Envigo). Mice were anesthetized with 10% Ketamine and 10% Xylazine mixture injected intraperitoneal. Next, mice were inoculated with MC38ova cells (1.2×10^6) subcutaneously to the right flank in 50 μl/mice.
Spleens were harvested from mice 24 hours after the 4th treatment and weighed. For IL15 experiments, mice were treated with a single dose of 0.5 μg, 1.5 μg of IL15, or with a mix of 0.5 μg IL15 and 2.33 μg IL15R.

IL18-BP = biological target: T1, IL18-BP (Mus musculus, UniProt Q9Z0M9); conditions: cited from earlier work
T1 sequence (Q9Z0M9 29-193): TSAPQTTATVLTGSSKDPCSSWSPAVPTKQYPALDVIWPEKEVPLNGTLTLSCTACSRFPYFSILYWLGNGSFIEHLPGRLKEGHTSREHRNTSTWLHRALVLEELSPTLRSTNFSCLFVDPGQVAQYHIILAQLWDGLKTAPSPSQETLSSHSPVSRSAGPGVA

Molecule	Tumor growth (B16/Db-hmgp100 melanoma)	Serum levels of IFNg, TNFa, MCP1 and IL6 ([1]; 4 hours after the 4th treatment, 0.32 mg/kg SC)	Serum levels of IL18 ([1]; 4 hours after the 4th treatment, detection identifies also engineered IL18)	Serum levels of IFNg ([1]; 24 hours after the 4th treatment)	Spleen enlargement compared to control ([1]; 24 hours after the 4th treatment, average)	Serum levels of IL18 ([1]; by 24 hours after the 4th treatment)	Binding to IL18-BP (IL18-BP)
BOJ-5G4-F4: Anti PVRIG mAb 407 mAb mouse IgG1 (antibody, V domains shown) VH: QVQLQQSGAELAKPGSSVMISCKASGYTFTNYAVHWIKQTTGQALEWTGYIAPGSGVTKYNEKFKGKATLTVDKSSTTAYMQLSSLTPVDTAVYYCASGTTRFAYWGQGTLVTVSS VL: DIVLTQSPALAVSLGQRATISCRASQSVSLSSYNLMQWYQQKPGQEPKILIYDASNLPSGIPARFSGSGSGTDFTLTIDPVQADDIATYYCQQSKDDPLTFGSGTKLEIK	comparable tumor growth to mice treated with isotype control mAbs	–	–	–	–	–	–
Engineered IL-18: engineered IL-18, sequence from US 20190070262A1, listed therein as mCS2 (SEQ ID NO: 61) (protein) HFGRLHCTTAVIRNINDQVLFVDKRQPVFEDMTDIDQSASEPQTRLIIYAYGDSRARGKAVTLSVKDSKMSTLSCKNKIISFEEMDPPENIDDIQSDLIFFQKRVPGHNKMEFESSLYEGHFLACQKEDDAFKLILKKKDENGDKSVMFTLTNLHQSHHHHHH	–	elevated serum levels of IFNg, TNFa, MCP1 and IL6	very high serum levels of IL18	elevated serum levels of IFNg	4.9 folds	returned to baseline	shown not to bind IL18-BP
